Measured values taken from PMC11440976, “Optimization and Evaluation of Al^18F Labeling Using a NOTA—or RESCA1-Conjugated AE105 Peptide Antagonist of uPAR” (Frontiers in Nuclear Medicine, 2021).
Blank lines part the entries; values can stand above or below the molecule they belong to. Where a SMILES comes first, the peptide text is derived from it. Where no end group is shown, it is not given here. [ ]: non-standard residue; d: D form. Cha = N[C@@H](CC1CCCCC1)C(=O)O

Legend:
[1] = target: T1, uPAR^1−283 (Homo sapiens, UniProt Q03405); experiment: SPR binding kinetics of peptides to immobilized uPAR (Biacore T200, single cycle); conditions: NB = no binding; for kon / koff: uPAR immobilized on CM5 chip, peptide in solution, global fit, ± standard error of fit; for kon: five serial 2-fold dilutions, 10 mM HEPES, 150 mM NaCl, 3 mM EDTA, 0.05% P-20, pH 7.4, 20°C, read-out: kon (association rate constant); for koff: read-out: koff (dissociation rate constant)
T1 construct: 10 μg/mL uPAR^1−283 in 10 mM sodium acetate pH 5.0 was covalently immobilized on a CM5 sensor chip; made in house
T1 sequence (Q03405 23-305): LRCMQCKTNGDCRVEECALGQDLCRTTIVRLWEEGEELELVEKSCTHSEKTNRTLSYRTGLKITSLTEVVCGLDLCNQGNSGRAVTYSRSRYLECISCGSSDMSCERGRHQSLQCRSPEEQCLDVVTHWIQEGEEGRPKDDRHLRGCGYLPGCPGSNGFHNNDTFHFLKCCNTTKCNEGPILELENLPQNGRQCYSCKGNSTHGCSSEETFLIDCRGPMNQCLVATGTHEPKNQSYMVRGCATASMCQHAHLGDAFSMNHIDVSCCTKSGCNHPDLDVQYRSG
Description: Binding kinetics of the peptides-uPAR interactions were determined with surface plasmon resonance (SPR) on a Biacore T200™ system (Cytiva), as outlined ([10]). In brief; 10 μg/mL uPAR^1−283 in 10 mM sodium acetate pH 5.0 was covalently immobilized on a CM5 sensor chip via amine coupling yielding a surface density of 905-1,333 RU (~26–39 fmol/mm^2) ([11]). Subsequently, we measured the binding kinetics of the various peptides to immobilized uPAR with single cycle protocols in which the peptides were injected as five serial 2-fold dilutions for 200 s with a short dissociation phase in between (100 s). The last analyte injection was followed by a 1,000 s long dissociation phase. In the end of each cycle, two consecutive injections of 0.1 M acetic acid in 0.5 M NaCl regenerated the sensor chip. All experiments were run with a flowrate of 50 μl/min in 10 mM HEPES, 150 mM NaCl, 3 mM EDTA, and 0.05% (v/v) surfactant P-20 at pH 7.4 at 20°C. The kinetic rate constants (kon and koff) as well as the KD (koff/kon) were determined by non-linear regression fitting of the curves to a simple bimolecular interaction model. We applied the BiacoreT200 Evaluation^TM 3.0 software for the global fitting. Additional binding kinetic curves is provided in the Supplementary Material.

[2] = target: uPAR·uPA interaction (Homo sapiens, UniProt Q03405); experiment: SPR competition of the uPAR·uPA interaction (uPAR in solution, immobilized pro-uPA^S356A); type: binding; conditions: 2 nM uPAR incubated with 3-fold dilution series of peptide (0.076 nM to 1.5 μM), pH 7.4, 20°C, four-parameter dose-response fit, n = 3, ± standard error
uPAR·uPA interaction, sequence (Q03405 23-305 limits assumed): as the sequence (Q03405 23-305) above
Description: The IC50-values of RESCA-AE105, NOTA-AE105, AE105 (Asp-Cha-Phe-(D)Ser-(D)Arg-Tyr-Leu-Trp-Ser) and AE105-mut (Asp-Cha-Glu-(D)Ser-(D)Arg-Tyr-Leu-Glu-Ser) on the uPAR·uPA interaction were determined with SPR on a Biacore 3000™ instrument or a Biacore T200™ system (Cytiva). The set-up is overall as described previously ([12]). In brief, we obtained a high surface density of pro-uPA^S356A by immobilizing >5,000 RU (~ 0.1 pmol pro-uPA/mm^2) on a CM5 sensor chip. […] For the analysis, we incubated 2 nM uPAR with a 3-fold dilution series of the peptides (ranging from 0.076 nM to 1.5 μM) and the νobs was measured for 300 s at 20°C with a flow rate of 50 μL/min. The running buffer contained 10 mM HEPES, 150 mM NaCl, 3 mM EDTA and 0.05 % (v/v) surfactant P20, pH 7.4. The sensor chip was regenerated with two consecutive injections of 0.1 M acetic acid, 0.5 M NaCl in the end of each cycle. In parallel, we measured a standard curve (2-fold dilution of uPAR covering 0.06–2 nM). This standard curve included one repeated concentration point at the end to validate the biological integrity of the sensor chip.

[3] = target: T2, uPAR^1−283 (UniProt Q03405-1 23-305); experiment: SPR; uPAR^1−283 immobilised on a CM5 chip by amine coupling (905-1,333 RU); peptides injected in single cycle protocols, five serial 2-fold dilutions; 10 mM HEPES, 150 mM NaCl, 3 mM EDTA, 0.05% P-20, pH 7.4, 20°C; Biacore T200; simple bimolecular model, global fit; conditions: both partners purified
T2 sequence (Q03405 23-305): as above

[4] = target: T2, uPAR^1−283; experiment: SPR; competition in solution: 2 nM uPAR incubated with 3-fold dilution series of the peptides (0.076 nM to 1.5 μM), free uPAR read by its association rate on pro-uPA^S356A immobilised at high density (>5,000 RU) on a CM5 chip; 10 mM HEPES, 150 mM NaCl, 3 mM EDTA, 0.05% P20, pH 7.4, 20°C; four-parameter dose-response fit, n = 3; conditions: both partners purified

kon [1]: 292000 ± 1000 M⁻¹ s⁻¹ | koff ([1]; pH 7.4, 20°C): 0.014 ± 2e-05 s⁻¹
Molecule: CC(C)C[C@H](NC(=O)[C@H](Cc1ccc(O)cc1)NC(=O)[C@@H](CCCNC(=N)N)NC(=O)[C@@H](CO)NC(=O)[C@H](Cc1ccccc1)NC(=O)[C@H](CC1CCCCC1)NC(=O)[C@H](CC(=O)O)NC(=O)c1ccc(CN(CC(=O)O)[C@@H]2CCCC[C@H]2N(CC(=O)O)CC(=O)O)cc1)C(=O)N[C@@H](Cc1c[nH]c2ccccc12)C(=O)N[C@@H](CO)C(=O)O [RESCA1-AE105]

kon [1]: 1.01e+06 ± 3000 M⁻¹ s⁻¹ | koff ([1]; pH 7.4, 20°C): 0.00413 ± 1e-05 s⁻¹
Molecule: CC(C)C[C@H](NC(=O)[C@H](Cc1ccc(O)cc1)NC(=O)[C@@H](CCCNC(=N)N)NC(=O)[C@@H](CO)NC(=O)[C@H](Cc1ccccc1)NC(=O)[C@H](CC1CCCCC1)NC(=O)[C@@H](N)CC(=O)O)C(=O)N[C@@H](Cc1c[nH]c2ccccc12)C(=O)N[C@@H](CO)C(=O)O [AE105]

Kd ([1]; immobilized uPAR, pH 7.4, 20°C, simple bimolecular interaction model, read-out: KD (equilibrium dissociation constant, koff/kon)): > 200 nM | IC50 [2]: > 1000 nM
Molecule: CC(C)C[C@H](NC(=O)[C@H](Cc1ccc(O)cc1)NC(=O)[C@@H](CCCNC(=N)N)NC(=O)[C@@H](CO)NC(=O)[C@H](CCC(=O)O)NC(=O)[C@H](CC1CCCCC1)NC(=O)[C@@H](N)CC(=O)O)C(=O)N[C@@H](CCC(=O)O)C(=O)N[C@@H](CO)C(=O)O [AE105mut] (H-D[Cha]E[dS][dR]YLES-OH)

koff [3]: 0.0125 s⁻¹ | kon [3]: 224000 M⁻¹ s⁻¹
B1: NOTA-AE105 (peptide)
chain: DXFSRYLWS
modifications: NOTA chelator conjugated at the N-terminal; Cha (cyclohexylalanine) at position 2; (D)Ser at position 4; (D)Arg at position 5

IC50 [4]: > 1000 nM
Molecule: D[Cha]E[dS][dR]YLES [AE105-mut]

IC50 [4]: 76.7 nM | Kd [3]: 48 nM
B2: RESCA1-AE105 (peptide)
chain: DXFSRYLWS
modifications: RESCA1 chelator conjugated at the N-terminal; Cha (cyclohexylalanine) at position 2; (D)Ser at position 4; (D)Arg at position 5

IC50 [4]: 8.86 nM | Kd [3]: 4.1 nM
B3: AE105 (peptide)
chain: DXFSRYLWS
modifications: Cha (cyclohexylalanine) at position 2; (D)Ser at position 4; (D)Arg at position 5
